Measurements reported in the supplement of paper PMC9112550, “Optimization of the antimicrobial peptide Bac7 by deep mutational scanning” (BMC Biology, 2022).

Test system: Escherichia coli TOP10
Assay: shrunken log2 fold change of peptide-encoding DNA abundance (4.5 h post-induction vs induction); higher = less antimicrobial activity (less host growth inhibition)
Settings: time post-induction: 4.5 h; library: site-saturation at positions 5, 18, 19, 20
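Further: peptides expressed intracellularly from a pBAD plasmid library in pooled LB shake-flask culture, induced with 0.3% L-arabinose, DNA abundance read by NGS, three biological replicates, DESeq2 with apeglm shrinkage.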

Row | Sequence | shrunken log2 fold change
1 | RRIRVRPPRLPRPRPRPGRYPRP | 0.303
2 | RRIRVRPPRLPRPRPRPGWAPRP | 0.228
3 | RRIRVRPPRLPRPRPRPGWFPRP | 0.22
4 | RRIRVRPPRLPRPRPRPGWPPRP | 0.433
5 | RRIRVRPPRLPRPRPRPGYQPRP | -0.00841
6 | RRIRVRPPRLPRPRPRPHCPPRP | -0.173
7 | RRIRVRPPRLPRPRPRPHDAPRP | -0.141
8 | RRIRVRPPRLPRPRPRPHDQPRP | 0.134
9 | RRIRVRPPRLPRPRPRPHEPPRP | -0.0412
10 | RRIRVRPPRLPRPRPRPHGDPRP | 0.00703
11 | RRIRVRPPRLPRPRPRPHHCPRP | -0.74
12 | RRIRVRPPRLPRPRPRPHHQPRP | -0.427
13 | RRIRVRPPRLPRPRPRPHHSPRP | -0.593
14 | RRIRVRPPRLPRPRPRPHKCPRP | -0.274
15 | RRIRVRPPRLPRPRPRPHKEPRP | 0.0216
16 | RRIRVRPPRLPRPRPRPHLRPRP | 0.248
17 | RRIRVRPPRLPRPRPRPHNYPRP | -0.181
18 | RRIRVRPPRLPRPRPRPHRAPRP | 0.101
19 | RRIRVRPPRLPRPRPRPHTAPRP | -0.00836
20 | RRIRVRPPRLPRPRPRPHTFPRP | -0.105
21 | RRIRVRPPRLPRPRPRPHWGPRP | -0.0382
22 | RRIRVRPPRLPRPRPRPHYYPRP | 0.0781
23 | RRIRVRPPRLPRPRPRPIDLPRP | -0.417
24 | RRIRVRPPRLPRPRPRPIDNPRP | -0.447
25 | RRIRVRPPRLPRPRPRPIDSPRP | -0.0289

Row | Sequence | shrunken log2 fold change
26 | RRIRVRPPRLPRPRPRPIDVPRP | -0.0749
27 | RRIRVRPPRLPRPRPRPIDWPRP | 0.224
28 | RRIRVRPPRLPRPRPRPIEMPRP | -0.267
29 | RRIRVRPPRLPRPRPRPIFDPRP | -0.0222
30 | RRIRVRPPRLPRPRPRPIGMPRP | 0.211
31 | RRIRVRPPRLPRPRPRPIGYPRP | 0.117
32 | RRIRVRPPRLPRPRPRPIHAPRP | 0.098
33 | RRIRVRPPRLPRPRPRPIILPRP | -0.483
34 | RRIRVRPPRLPRPRPRPIIVPRP | 0.0713
35 | RRIRVRPPRLPRPRPRPIKIPRP | -0.251
36 | RRIRVRPPRLPRPRPRPILCPRP | 0.0143
37 | RRIRVRPPRLPRPRPRPILSPRP | -0.134
38 | RRIRVRPPRLPRPRPRPIMEPRP | 0.0384
39 | RRIRVRPPRLPRPRPRPINIPRP | -0.347
40 | RRIRVRPPRLPRPRPRPIPNPRP | 0.0329
41 | RRIRVRPPRLPRPRPRPIPYPRP | -0.0701
42 | RRIRVRPPRLPRPRPRPIRKPRP | -0.165
43 | RRIRVRPPRLPRPRPRPISWPRP | 0.18
44 | RRIRVRPPRLPRPRPRPITCPRP | -0.324
45 | RRIRVRPPRLPRPRPRPIVGPRP | 0.0676
46 | RRIRVRPPRLPRPRPRPIWPPRP | -0.0228
47 | RRIRVRPPRLPRPRPRPIYKPRP | -0.535
48 | RRIRVRPPRLPRPRPRPIYMPRP | -0.438
49 | RRIRVRPPRLPRPRPRPKASPRP | 0.0977
50 | RRIRVRPPRLPRPRPRPKCIPRP | 0.0104

Row | Sequence | shrunken log2 fold change
51 | RRIRVRPPRLPRPRPRPKDNPRP | -0.438
52 | RRIRVRPPRLPRPRPRPKECPRP | -0.0265
53 | RRIRVRPPRLPRPRPRPKEKPRP | -0.0337
54 | RRIRVRPPRLPRPRPRPKFAPRP | 0.0713
55 | RRIRVRPPRLPRPRPRPKGIPRP | -0.115
56 | RRIRVRPPRLPRPRPRPKHTPRP | -0.177
57 | RRIRVRPPRLPRPRPRPKIAPRP | 0.0892
58 | RRIRVRPPRLPRPRPRPKIPPRP | 0.0285
59 | RRIRVRPPRLPRPRPRPKKNPRP | 0.28
60 | RRIRVRPPRLPRPRPRPKLTPRP | -0.0989
61 | RRIRVRPPRLPRPRPRPKLWPRP | 0.127
62 | RRIRVRPPRLPRPRPRPKMRPRP | 0.329
63 | RRIRVRPPRLPRPRPRPKPCPRP | 0.205
64 | RRIRVRPPRLPRPRPRPKPFPRP | 0.00969
65 | RRIRVRPPRLPRPRPRPKQWPRP | 0.326
66 | RRIRVRPPRLPRPRPRPKSSPRP | -0.0704
67 | RRIRVRPPRLPRPRPRPKVCPRP | -0.0503
68 | RRIRVRPPRLPRPRPRPKVMPRP | -0.12
69 | RRIRVRPPRLPRPRPRPKWKPRP | -0.0377
70 | RRIRVRPPRLPRPRPRPKYNPRP | -0.658
71 | RRIRVRPPRLPRPRPRPKYTPRP | -0.421
72 | RRIRVRPPRLPRPRPRPLAGPRP | 0.334
73 | RRIRVRPPRLPRPRPRPLAIPRP | 0.0184
74 | RRIRVRPPRLPRPRPRPLAWPRP | 0.0442
75 | RRIRVRPPRLPRPRPRPLCGPRP | 0.0478

Row | Sequence | shrunken log2 fold change
76 | RRIRVRPPRLPRPRPRPLCPPRP | -0.153
77 | RRIRVRPPRLPRPRPRPLDWPRP | 0.188
78 | RRIRVRPPRLPRPRPRPLECPRP | -0.041
79 | RRIRVRPPRLPRPRPRPLEDPRP | 0.144
80 | RRIRVRPPRLPRPRPRPLFQPRP | -0.0438
81 | RRIRVRPPRLPRPRPRPLHLPRP | -0.133
82 | RRIRVRPPRLPRPRPRPLIAPRP | -0.0308
83 | RRIRVRPPRLPRPRPRPLKEPRP | 0.0279
84 | RRIRVRPPRLPRPRPRPLKYPRP | -0.136
85 | RRIRVRPPRLPRPRPRPLMHPRP | -0.249
86 | RRIRVRPPRLPRPRPRPLMIPRP | -0.361
87 | RRIRVRPPRLPRPRPRPLNVPRP | -0.434
88 | RRIRVRPPRLPRPRPRPLPCPRP | -0.12
89 | RRIRVRPPRLPRPRPRPLPVPRP | 0.0196
90 | RRIRVRPPRLPRPRPRPLPYPRP | -0.587
91 | RRIRVRPPRLPRPRPRPLRQPRP | 0.395
92 | RRIRVRPPRLPRPRPRPLRSPRP | 0.132
93 | RRIRVRPPRLPRPRPRPLSCPRP | -0.307
94 | RRIRVRPPRLPRPRPRPLTHPRP | -0.439
95 | RRIRVRPPRLPRPRPRPLTTPRP | -0.219
96 | RRIRVRPPRLPRPRPRPLVAPRP | 0.196
97 | RRIRVRPPRLPRPRPRPLWEPRP | 0.203
98 | RRIRVRPPRLPRPRPRPMDHPRP | -0.426
99 | RRIRVRPPRLPRPRPRPMDKPRP | -0.278
100 | RRIRVRPPRLPRPRPRPMDTPRP | -0.171

Row | Sequence | shrunken log2 fold change
101 | RRIRVRPPRLPRPRPRPMEVPRP | -0.997
102 | RRIRVRPPRLPRPRPRPMKAPRP | 0.0113
103 | RRIRVRPPRLPRPRPRPMKSPRP | 3.02
104 | RRIRVRPPRLPRPRPRPMKYPRP | -0.0836
105 | RRIRVRPPRLPRPRPRPMLCPRP | 0.121
106 | RRIRVRPPRLPRPRPRPMLQPRP | 0.154
107 | RRIRVRPPRLPRPRPRPMNFPRP | -0.349
108 | RRIRVRPPRLPRPRPRPMNHPRP | -0.194
109 | RRIRVRPPRLPRPRPRPMNNPRP | -0.694
110 | RRIRVRPPRLPRPRPRPMRVPRP | 0.0609
111 | RRIRVRPPRLPRPRPRPMSDPRP | 0.032
112 | RRIRVRPPRLPRPRPRPMTPPRP | 0.452
113 | RRIRVRPPRLPRPRPRPMVYPRP | -0.17
114 | RRIRVRPPRLPRPRPRPMWCPRP | -0.139
115 | RRIRVRPPRLPRPRPRPMWEPRP | 0.0553
116 | RRIRVRPPRLPRPRPRPMYCPRP | -0.233
117 | RRIRVRPPRLPRPRPRPMYEPRP | -0.774
118 | RRIRVRPPRLPRPRPRPMYVPRP | 3.48
119 | RRIRVRPPRLPRPRPRPMYYPRP | -0.706
120 | RRIRVRPPRLPRPRPRPNAEPRP | 0.0611
121 | RRIRVRPPRLPRPRPRPNASPRP | 0.147
122 | RRIRVRPPRLPRPRPRPNCSPRP | 0.0892
123 | RRIRVRPPRLPRPRPRPNDPPRP | -0.0659
124 | RRIRVRPPRLPRPRPRPNDTPRP | -0.228
125 | RRIRVRPPRLPRPRPRPNFYPRP | -0.146

Row | Sequence | shrunken log2 fold change
126 | RRIRVRPPRLPRPRPRPNHKPRP | -0.292
127 | RRIRVRPPRLPRPRPRPNKFPRP | -0.255
128 | RRIRVRPPRLPRPRPRPNMDPRP | -0.506
129 | RRIRVRPPRLPRPRPRPNMWPRP | -0.327
130 | RRIRVRPPRLPRPRPRPNPKPRP | -0.0645
131 | RRIRVRPPRLPRPRPRPNQDPRP | -0.116
132 | RRIRVRPPRLPRPRPRPNRRPRP | -0.0977
133 | RRIRVRPPRLPRPRPRPNSVPRP | -0.00107
134 | RRIRVRPPRLPRPRPRPNTMPRP | -0.293
135 | RRIRVRPPRLPRPRPRPNVCPRP | -0.111
136 | RRIRVRPPRLPRPRPRPNVEPRP | -0.0461
137 | RRIRVRPPRLPRPRPRPNVTPRP | -0.554
138 | RRIRVRPPRLPRPRPRPNWHPRP | -0.0428
139 | RRIRVRPPRLPRPRPRPNWNPRP | -0.318
140 | RRIRVRPPRLPRPRPRPNYEPRP | -0.0505
141 | RRIRVRPPRLPRPRPRPPAAPRP | 0.397
142 | RRIRVRPPRLPRPRPRPPAIPRP | 0.376
143 | RRIRVRPPRLPRPRPRPPGRPRP | 0.593
144 | RRIRVRPPRLPRPRPRPPGWPRP | 0.718
145 | RRIRVRPPRLPRPRPRPPHAPRP | 0.351
146 | RRIRVRPPRLPRPRPRPPHSPRP | 0.108
147 | RRIRVRPPRLPRPRPRPPKLPRP | 0.0622
148 | RRIRVRPPRLPRPRPRPPNTPRP | -0.0576
149 | RRIRVRPPRLPRPRPRPPPDPRP | 0.834
150 | RRIRVRPPRLPRPRPRPPPQPRP | 0.856
